# Source: the NTF2 design screens of Basanta et al. (2020)
# Experiment: protease stability score; higher = more stable; yeast display proteolysis, trypsin and chymotrypsin;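 note: relative to predicted unfolded state with 0 unfolded-like and 1 meaning tenfold more protease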
row,Sequence,protease stability score
1,REEEEEIRFAEEFWMELEKTGDEHKILRMADPNVRVRIGDKHHHGREHLRRVIEWRLEYAGIDKIEVRLRRVTIINGRVHIDGELIVGDKEHRVEIILVKINGRWILHEFEIR,1.5
2,DEDERDTREAIELFRESIRTGDERILEEMVDPNVRLEFNGKHHHGMEHLVKWFSFLAKHWRVDIDLHHLEVQGDKVHSDERIDLVQGDKIVHTEVKIIFRKINGRWLMHKIRIN,1.4
3,SELKNWARIIAERVTDELNTGNEHRLRELFDPNVKIRIDGRDFHGMDTLRRFFEELRITHTHWEHKDMHLIGDKALLHGTLKINILQGDKTHETTFDVRIFVIKVNGRWSYEHMEID,1.22
4,DEEKDHAQMFLELWRHFLETGDEEFLERLADPHVKSLINGVEHHGREIMYKYLIKFLRRLGVDRVHTEVRIHHMHVINGVAFFDGTLHLNFNGQTYSRRVEIIVYKVNGRWHLHEFRIE,1.74
5,DEEEEEDRHAAEITIKVLLTGDEKKLQELADPHTRFIIWIDGRELRYIGRRDLVRVWREIIRKLGIDHLSLDDMRVIDGKIHLHETMNVDGKNISRRIINNVINGVNKHIEVNLS,1.17
6,SEDEEVIKKHLKEFIDVLRTGNEEMSSYLADPNARVVDENEFSHGREDMTRIVSQARLHHIHVHDFELQGDKLLLDVHVDGVINGRRRRDKFHFVWLKYNGRWFLHSVHIR,0.652
7,SESKEFIKRFTEEILKNTLTGNEDRYEELLDPNVRVEVGDKEHHGREEALEFLHRIWRELRTKHIVLRDMRIIGDKAEVEYEVRVEVNGVELHMTRRMEIVVIDGRLKAVKLEHT,1.24
8,DEDRRIAEHLIKLYLQSTRTGDENSIRHLMDPNTRVIVGDKDRIGREAAEELLRRVDHLHDYKIEDIRFVGDFIDVEMRVDGEFDGVREHYRVILILFKVDGRWRIHLIEIR,1.55
9,SEEYKRVKHMFDLWLHALITGDEDLMEELADPHVRHDINGVKNHGWETLIDREREWRIKRIDHRRSDAVNGRMHSDVHIDGIFDGKRHETDVTIHMIVVNGKFKTVEIRYH,1.08
10,SEHHKEAREMVEELIRLYETGDEDTLRTLADPHVRQDINGVDYVGREFAADLLIDEMREIRSHIHVHRIHTYNGQVHVDGHLEFIIGDKSYRLRVHMVVEKVDGKWLHRSEHYK,-0.116
11,DEKEKLKQLARKFHKAMQTGDEDELKKNVDENVRADYGDRRYHGSEELAKWLREMKTKVDHLSMTIKDIRVKGDRAEIELEMTFDHNGRQETRQFTLQAQVHNGSLKIVQIRQS,1.47
12,DEEDRRAKEIMRLLLEDFHTGNEDSLRELMDPTTRNDLVVNGQEHVIHGRETFAEWESKWIKHLRMNLRLRHVNAFNGQVRLETELNLEVNGRIIILDTEVIVHVYNGRIHSFTHRIK,0.236
13,DEDVEDSLRALRELTKSLITGDEDSFRHLADPHARFIWNGKEIHGWEEVVKVVSKILKHLRFDDIILRDIRIQGDKIEFVVTDLVTVGDKHEEVDSRVTIYKVNGRWLLHTIKIR,1.3
14,STREEETRRISDMIVKSLMTGDWRTFHDLLDPNVKVEINGKEMHGWKAWEDYIREMGIKVFDYHRIEVDENHLLMDGIDKVDGREHRSHYEITIIDGRIRRVEIRHK,1.1
15,SEIDEEIEKHFELYTHALHTGDEHVLRRLLDPDARLTVGDKTFHGREQVVKELSREIHELRVRDMEIKDEKLVGDKLHQDTRLQFKFNGKEHEIITNFIWLKVNGQWVIREVRYD,1.25
16,DERDELVRQLMEWLVRAYITGDFETLKNLFDPNAKVRVNGRELIGMETFWQLLWHLRFTDHKIDSVEMQGEKVTVNVTLFIDVNGREETKKSHLIFVVVNGRLKSMDFRYE,1.66
17,DELQRDSKQAVKLWSESVLTGDERVLKEMADPDPRVEVGEYSSHGMHEVKRLLREMRIEVEDFKDENVRVYGEKLVVDGILHIRIHINGRDEHIDRRAILIMVKVDGRWYFKSMVYR,0.781
18,SEDEEMNRLAIELLLRYMRTGDEHKLEELADPNVRIEVGDKESVGREVFLRFWMHLKKKLGIDVVEIELHEIKHYDGRVHSDTRFIMNVNGVEYRRDTEVVAHKVDGKWMLEHVHVE,0.92
19,TEELEELEKMLELVLRSFHTGDEHLLERLADPHAKYHFNGKNLHGWDKLSHLWRKAGVEKVESRIRDLELQGDYVNTDVEMRYNGRTEEVEFRVKKIDGRWIIKEIIIR,0.809
20,SESHNFFKWALEVLLLSLRTGNERHLETLADPNMRVYINGREHHGRQMYFEMVFRWIEKFPNIQIHIHIEDTRVQGDKVHVDGEYQERFNGKTFVEKVHIIMLKIDGKWVLERDEII,1.6
21,NEEEEESRRAFHLLVELLRTGDEESFTKLADPHMRIIVDGREIHGREEMRRFMEEHWERFPNMKVRIEHFRVQGDKVTIHTVVHIGDKEIEVHIHARKVNGRWIMKELIIVTR,0.552
22,DEEEKALDHAWRRFLETLKTGDERKFHELLDPNVQIDWNGRKLHGMHLIVDIIRRVKNLKSHEIHIRHITVIGDKVEFRSDIRGTVDGVDTEIHTRYLFLKIDGQWVLHHEEIV,2.22
23,SNEDEIAQHLVRLILNAHLTGDEKLLETLADPTMRFTLRIGDKQHERHGREEWIKWVRHTIERIDHIEIRIDDRRIQGDKIEIDGTLRLEIGDKVNQVRVDIIIHLVNGRLKEVIIEVV,2.06
24,SEEKEDAKIALTLLHEVIETGDERLFREMADPRVQIIVNGKELHGWKHFKEMLRILSERYDHMEIKFRDVRVVDGQVDSDVTINLHYDGREDQMEMDIIISKFDGRWFNHQVIFR,1.34
25,DEFKELTTEFIKQFLDNIRTGNEELLRELADPHVRFLVNGRELHGRESFVETFRHWRMKDWEIRDVEVYGEKLVMDGHVRVNIDGREDSVRVRLYVDKIDGQWHHRRFEFN,1.76

row,Sequence,protease stability score
1,DEEKRDVDDAKEVWDRIFKTGDEHQLERNFDPNVRQHIDGREHVGREEFRKEFHKILLLLGVKHLRIEFHDEEYQGDKIILRGTLFFEVNGRIEIWIVTIIARKVNGQWLVHTVHHN,0.425
2,DKFERDLEEALREVLEALETGDEDRLLNLFDPHARIDIDGRDLHGWEDLTRELREIRIRHIHLHDRRIQGEWIHFDTITDGEFNGQRTTVRTHILMLKFDGRWMIREVTFI,1.51
3,DDMHEVAKQLMEELVRNWITGNEDNVRHLLDPDVRIIIGDFIFHGRESLELLLHFYNKHIRWTDYKVHDFRIQGDYLHMDTRLIGIIDGRHVILETQMVAVKINGRWRVKSLEVR,2.11
4,HDLEETVRDMIHLLMTFVETGDEDSVHRLIDPHVRVEVGDKLTHGRQWVHLLIKRADVLEIRIEDMRIVGDKALIVSKYHIRIDGVFIVYNIDIYAEKIDGRWVTTEIKVD,1.71
5,DDEKEILRIAIEWSELVSNTGDEKTVEHLADPHVRIHYGDKDYVGRERMVEFVHRFKNLKLEIKDTDVQGEYIHVNGKMKFNGRTFDVEIVVFKIDGVWFEKSVEFK,1.38
6,DHREKELEKMARIFIHNLVTGDWRSLEKLADPDAKSEVIIGDKHIEHVGRHEVWKMLFEIRWEQVEVHDIRIYNGRVEIDGHMKGDIDGRRIETDTKIRLTIVNGVVQTFHMEIR,2.23
7,DEDEEEALDFMRLLVESLQTGDEELISRMADPNVLLIVNGVEHVGREFYVKWVKHLVERVDHMEIRLKRIEIYDGRAHLDTEVIFRFNGRELRKKTHLIIEKVDGRWILKSVIVE,2.35
8,SEEHRLSEEIARIEVHAWITGDEHILHELLDPNTRLEVNGREYHGREIVLKMIREFWENLGAKHREVKRVRIELIDGRVTTHIKDKVSQGDKELEIIIEIITEKVNGRWVIRNMRIELR,2.7
9,DEEEETARRLTEELIRSQKTGDWEFLLRLMDPHAKSDINGVHVVGMEETVRILEKLLRDLGVTKVEALLHRVHFIDGRVHVDSEERYGDKWFRVHFTVQKINGKWVIRSIEVR,1.4
10,DEATEKAKKAYELWMHSLKTGDEHHLKNLMDPDVRVIIDGVDMHGWEAAHFERRRFDHIHRVHVDHYEFQGNKSIWDGTVDGKVGDKEHRNRRIIIMNVVDGRYKSIHLHVE,0.991
11,SDLDDMATKLIHEWIHAELTGDFKRIEELIDPHVRIVIEVNGRRIELIGREELRRWLEEWMEEMRHEIKLTHIEVQGEKTHVDTHLVIRAENHSYHHKTSRIFIIINGRMHSIHVHIR,1.7
12,DEDTTMLEEMARLLVEMWLTGDEEKIYKLADPDVRLNVNGKDQIGREESEKLRRELLETLGIKHFEVEDLKIRLIDGRVNVHIYGIVKFNGVNVKMILDHHSRKVNGRWRIEHLRIIHI,1.32
13,SEDEKIAQRLLDLLLESFITGDEQMDRELLDPNVKMEVGDKELHGREEALEWFTRVAKRVDHMRFTLTHMDIIDGRIIIQGRVEQFFNGRKVTTRYNLLVLKIDGRWRIEEIRYH,1.42
14,SEEQHHLYSVFVRLIRNHWTGNERELHELADPNTRHTVGDKTYHGMEHVAWLLTEWVKEARLEIILRDVHVFDGRVESRIEFRLRYGDFKTTHEVRVEVNVVDGRLKEMEIDIN,1.43
15,TEDERDAKRMAETMVKLWETGDWRTLFELADPDMRFEYGDKRFHGREKLIKVLRDIFERLGIDHSHVRDFKIIFVGEKVEVRLDIETHFDGRTEEFHIEINVRKIDGRWRLKSMHIEIR,2.02
16,SDKEEEAHRLLELLIHWYRTGDFETWRQLMDPHVRNVVDVNGRELHHHGREEVTDSLRFFWEHLGIKHVHFRHVEVQGDKIKLHGQQRVDGQEHQSDFIFIIVDGRVKFIFIHLR,0.649
17,SEDRQIAEQIVEDLSTSTVTGDWRLILELLDPDTRIVVDGVDLHGREEFLRFFERIDHMRARRTRLSDFRSYGDKVEADVDIKMEYIVDGRNITERFKERFIIIKVNGRWIVKEWRLK,2.61
18,SEAEESARKLTHDILRLFLTGDEDLISRYFDPNVRHHINGQEEHGMEKMVKMLNHMRFRDMHLRDVRIHIIDGVATAHVEGELHGEVNGVRRDIKSELIIITEKFNGRWRLSSISFIIE,0.256
19,DDEEHASRNAYRILKRVVETGDWREFRKMMDPDARVLINGVQLHGREAVHHLLERVDHLHDIELRHIHTQGNKIHIEISVDGLIDGQKTETERRILVTKFNGRWKVEQIEIG,0.628
20,DEDNEYVEYMHELIARALITGDFELWLKLMDPNTRMQIDGKEFHGREEFRKRLEHLRIDRVRYNVRHFHIIGDKLHVKSEFEIDGQIDGVDRHFSVEIRVLIWKINGRWILRDETTH,1.69
21,DRHEKIALEMARIILELLYTGDEDTFKHLADPNVKLHLDINGRHFEHHGREEHEKWSRELERHMRITDIKIDDEKVQGDWVHIDSTIVMRIGDKSSIHKMHFIFQIVDGRIKNMEVVIK,1.38
22,DEEEERFEEVWRRLARALETGDEETVRHLIDPNVLIIIGDKTIHGWESLSTYLKEIRLTISDMRVRSRSEVNGKLEFDTHTHRVVFINGVELHVEERIHITMLKIDGRWHIHSIEFR,1.45
23,SEYYEESKRMAEEHQHMRETGDEDRLRHLMDPTTKVEVGDKEFHGREWWHEFYKRFDHIEFRIHDIKLIDGVAIIQSIIIVRQGDKSDTLHVTIRITKVNGRWRTKSFEVI,1.48
24,DEEEEELRRLLEEIFRNRVTGDEERWLELADPDVRLEEHINGQEIHLHGREDVAEHIREARIHSTEVKDVKVINGVIHLDEKIDGIINGVRRDTRVIVHIVVINGRIKSIRVIVN,1.65
25,DHEDELMERLARLFVHALQTGDEDLLRRYADPNTLINVNGKNLHGMEEESRFWKEIRIEHTEVERIHVQGNKSTVFVRVFFRIGDKHVHEHRILRLEFVDGRLRSVELERH,1.69
